Data set [1] has as its target RFLAT-1 full length (homo sapien) (UniProt Q9Y2Y9). Briefly: cell_activity. As to conditions: Jurkat T cells.
Data set [2] concerns recombinant His6-RFLAT-1 (C-terminal portion of RFLAT-1, amino acids 59-288).

From patent publication US6376240 come the findings set out here.

Chain of RFLAT-1 full length (homo sapien) (Q9Y2Y9 other isoform, or with tags, fused parts or gaps): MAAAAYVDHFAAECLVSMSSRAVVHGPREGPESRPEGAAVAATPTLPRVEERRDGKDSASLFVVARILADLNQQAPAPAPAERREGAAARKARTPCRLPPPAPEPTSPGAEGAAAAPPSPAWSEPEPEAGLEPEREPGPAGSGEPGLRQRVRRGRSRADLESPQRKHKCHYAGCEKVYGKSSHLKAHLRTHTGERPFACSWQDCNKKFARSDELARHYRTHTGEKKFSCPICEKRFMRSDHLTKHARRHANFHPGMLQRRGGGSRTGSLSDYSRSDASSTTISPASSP
Chain of recombinant His6-RFLAT-1 (C-terminal portion of RFLAT-1, amino acids 59-288) (chain, as listed by the source): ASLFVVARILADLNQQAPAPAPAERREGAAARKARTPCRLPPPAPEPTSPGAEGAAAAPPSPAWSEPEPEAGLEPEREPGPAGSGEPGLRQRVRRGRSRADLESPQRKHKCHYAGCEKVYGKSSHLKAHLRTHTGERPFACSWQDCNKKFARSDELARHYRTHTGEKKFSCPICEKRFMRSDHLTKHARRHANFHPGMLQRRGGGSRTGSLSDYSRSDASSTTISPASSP

Regarding RANTES promoter pGL2-R-luciferase, the activity (fold induction) in data set [1] (about 5 fold in NIH3T3) was 10.
For the substance three A/B sites luciferase reporter, in data set [1] (similar degree of induction), the activity (fold induction) came out at 10.
Regarding NILK, in data set [2], the “phosphorylation of recombinant RFLAT-1 by immunoprecipitated kinase” value was “the immunoprecipitated NILK from activated PBLs phosphorylates recombinant RFLAT-1”.
